In patent US20160046680A1, “RADIOTRACER IMAGING USING SODIUM IODIDE SYMPORTER POLYPEPTIDES” (MAYO FOUNDATION FOR MEDICAL EDUCATION AND RESEARCH, priority 2013, published 2016):
Substitutions are numbered along the chain they refer to. Names may count otherwise. “Also recorded” adds a separate entry of the source.

Columns and labels:
[1] = tested on: endogenous NIS expressing organs (thyroid and stomach) and heterologous NIS expressing tumor cells; experiment: Dual isotope SPECT/CT imaging of nude mice with BXPC-3-hNIS tumors; settings: four hours after i.p. administration of 250 μCi each
Protocol: FIG. 6. SPECT/CT dual isotope imaging of nude mice implanted with SQ BXPX-3-hNIS tumors. Animals were injected i.p with 250 μCi ^125I and 250 μCi ^99mTc and imaged four hours later. Images were processed using Vivo Quant software. The scale was adjusted manually to get minimal yellow in the tissues.
The stomach and thyroid signals were subtract from the SPECT dataset (FIG. 5). In this experiment, nude female mice (5-week of age) were injected with 3×10^6 BXPC-3-hNIS cells. When tumors reached a diameter of 1 cm, mice were injected I.P. with ^125I sodium iodide (250 μCi) and/or ^99mTc-pertechneate (250 μCi). Four hours post isotope administration, SPECT/CT data were acquired with U-SPECT-II (MiLabs). […] Radioiodide thyroid signal subtraction was performed by normalizing the ^125I SPECT data to thyroid tissue on the ^99mTc SPECT data using the image arithmetic tools available in PMOD image fusion software. This was performed in three steps by (1) calculating the normalization factor (i.e., the inverse ratio between the maximum voxel value corresponding to the thyroid tissue on the ^125I SPECT and the maximum voxel value corresponding to the thyroid tissue on the ^99mTc SPECT data set), (2) multiplying each voxel in the ^125I SPECT dataset by this normalization factor, and (3) subtracting the normalized ^125I SPECT dataset from ^99mTc SPECT data set to generate a thyroid subtraction SPECT dataset (FIG. 5C). Similarly, ^99mTc stomach signal subtraction was performed by (1) calculating the normalization factor which in this case is the inverse ratio of the maximum voxel value corresponding to the stomach tissue on the ^99mTc SPECT to the maximum voxel value corresponding to the stomach tissue in the ^125I SPECT data set, (2) multiplying each voxel in the ^99mTc SPECT dataset by this normalization factor, and (3) subtracting the normalized ^99mTc SPECT dataset from ^125I SPECT data set to generate a stomach subtraction SPECT dataset (FIG. 5B).

[2] = tested on: stomach signal from NIS polypeptide-mediated uptake of radioisotopes; settings: mouse fed by gavage, then imaged; NIS transduced liver
Description: FIG. 2B is a photograph of the same mouse fed oral contrast agent.

[3] = tested on: NIS expressing cells; settings: cited from earlier work
[4] = tested on: Mel624 cells; experiment: Radiotracer uptake assay in Mel624 cells stably expressing NIS polypeptides; format: cell-based; settings: for Uptake of pertechnetate (Technetium-99m) / Uptake of radioiodide (Iodine-125): Mel624 cells expressing the NIS polypeptide, 1 hour at 37° C., +/- 300 μM KClO4
Protocol: Mel624 cells stably expressing a wild-type human NIS polypeptide (Mel-NIS) or one of two mutant NIS polypeptides (Mel-NIS-93E or Mel-NIS-93Q) were plated in 96-well plates at a density that would lead them to confluency on the day of the uptake assay. 1×Hank's balanced salt solution with calcium, magnesium (HBSS) (Cellgro) and 1 mM HEPES was adjusted to pH 7.3 using KOH (HBBS-HEPES) on the day of the assay. Culture medium was removed from the cells, and 150 μL of HBSS-HEPES+/−300 μM KClO4 was added to the wells. The cells were incubated for 10 minutes at room temperature prior to the addition of radiotracer. Radiotracers, ^125I and ^99mTc, were diluted in HBSS-HEPES to about 70,000 to 100,000 CPM/25 μL (CPM, counts per minute). 25 μL of radiotracer was added to the cells in HBSS-HEPES+/−KClO4, and the cells were incubated at 37° C. for 1 hour. The cells were then washed twice with cold HBSS-HEPES buffer and lysed to release the intracellular radiotracer by adding 200 μL 1M NaOH. Lysates were transferred to strip tubes and quantified using a gamma counter.

[5] = tested on: Hela-YFP-IS cells; experiment: Non-radioactive YFP-H148Q/I152L in vitro uptake assay; format: cell-based
Description: FIG. 11 contains graphs plotting the relative fluorescence Hela-YFP-IS cells expressing no NIS (i) or the indicated mutant NIS (ii-viii) after treatment with I^−, ReO4^−, BF4^−, and ClO4^−. These graphs show the concentration dependence of I^−, ReO4^−, BF4^−, and ClO4^− induced changes in YFP-H148Q/I152L fluorescence in Hela-YFP-IS cells expressing the indicated NIS mutants.
Using an anti-HA-tag-Alexa-Fluor-647 monoclonal antibody, cells expressing the NIS mutants on the cell surface were labeled and quantified using flow cytometry. […] A non-radioactive YFP-H148Q/I152L in vitro uptake assay was used to monitor uptake of NIS substrates: […], […], BF4^−, and ClO4^−. The NIS mutants were co-expressed with YFP-H148Q/I152L, which decreased in fluorescence following an interaction with halides. […] This was particularly so at the lowest substrate concentrations, which are of clinical relevance as radiotracers used for imaging are administered to animals and humans in trace amounts. At 1-5 μM concentrations of substrate, NIS-Q72N transported less iodide but more ClO4^− into the cells.

[6] = 1-5 μM concentrations of substrate, YFP-H148Q/I152L fluorescence

For `[O]=[99Tc](=[O])(=[O])[O-]` [^99mTc, ^99mTc-pertechneate], the “Accumulation in BXPC-3-hNIS tumor cells” value [1] was “accumulate both isotopes to similar concentrations” and the “Organ that preferentially accumulates the isotope” value [1] was “stomach preferentially accumulates”.

With `[125I-].[Na+]` [^125I, ^125I sodium iodide] the “Accumulation in BXPC-3-hNIS tumor cells” value [1] was “accumulate both isotopes to similar concentrations” and the “Organ that preferentially accumulates the isotope” value [1] was “thyroid preferentially accumulates”.

In the case of `O=S(=O)([O-])[O-].[Ba+2]` [barium sulfate], the “Isotope signals from the stomach” value [2] is reported as “reduced isotope signals from the stomach”.

For `[O-][Cl+3]([O-])([O-])O` [perchlorate], the “Efficiency of concentration in NIS expressing cells compared to iodide anions (less efficiently)” value [3] is given as 10 fold.

B1: NIS-93E: mutant human sodium iodide symporter polypeptide, human NIS-93E (SEQ ID NO:1) (protein, listed as Homo sapiens)
chain: MEAVETGERPTFGAWDYGVFALMLLVSTGIGLWVGLARGGQRSAEDFFTGGRRLAALPVGLSLSASFMSAVQVLGVPSEAYRYGLKFLWMCLEQLLNSVLTALLFMPVFYRLGLTSTYEYLEMRFSRAVRLCGTLQYIVATMLYTGIVIYAPALILNQVTGLDIWASLLSTGIICTFYTAVGGMKAVVWTDVFQVVVMLSGFWVVLARGVMLVGGPRQVLTLAQNHSRINLMDFNPDPRSRYTFWTFVVGGTLVWLSMYGVNQAQVQRYVACRTEKQAKLALLINQVGLFLIVSSAACCGIVMFVFYTDCDPLLLGRISAPDQYMPLLVLDIFEDLPGVPGLFLACAYSGTLSTASTSINAMAAVTVEDLIKPRLRSLAPRKLVIISKGLSLIYGSACLTVAALSSLLGGGVLQGSFTVMGVISGPLLGAFILGMFLPACNTPGVLAGLGAGLALSLWVALGATLYPPSEQTMRVLPSSAARCVALSVNASGLLDPALLPANDSSRAPSSGMDASRPALADSFYAISYLYYGALGTLTTVLCGALISCLTGPTKRSTLAPGLLWWDLARQTASVAPKEEVAILDDNLVKGPEELPTGNKKPPGFLPTNEDRLFFLGQKELEGAGSWTPCVGHDGGRDQQETNL
For B1, the “Efficiency of concentrating iodide relative to TcO4” value [4] was “concentrate iodide with greater efficiency than TcO4”, the “Concentration of Iodine-125 uptake in tumor cells as compared to non-mutated NIS (NIS WT)” value ([4]; FIGS. 1A and 1B) was “decrease the concentration of Iodine-125 uptake” and the “Uptake of pertechnetate (Technetium-99m)” value [4] was “minimal or no uptake of pertechnetate; also recorded: not pertechnetate”. For the same molecule, the “Uptake of radioiodide (Iodine-125)” value [4] was “can uptake radioiodide; also recorded: capable of up-taking radioiodide”, the “Uptake of pertechnetate (Technetium-99m)” value ([4]; listed as NIS-G93E) was “not Technetium-99m” and the “Uptake of radioiodide (Iodine-125)” value ([4]; listed as NIS-G93E) was “transport selectively Iodine-125; also recorded: selectively transports Iodine-125”.

B2: NIS-Q72N: human NIS with Q72 mutated to N, N-terminal HA-tag (protein, UniProt Q92911 1-643, looked up, variant Q72N)
Sodium/iodide cotransporter: B1 chain with Q72N, E93G
modifications: N-terminal HA tag
For B2, the “ClO4- transported into the cells compared to wild-type NIS” value [5, 6] was “more ClO4^−”, the “Iodide transported into the cells compared to wild-type NIS” value [5, 6] was “less iodide” and the “Substrate transport profile compared to wild-type NIS” value ([5]; I-, ReO4-, BF4-, ClO4-, FIGS. 11 and 12) was “altered substrate transport profile”.

B3: wild-type human NIS polypeptide: wild-type human sodium iodide symporter polypeptide (protein, UniProt Q92911 1-643, looked up)
Sodium/iodide cotransporter: B1 chain with E93G
For B3, the “Uptake of pertechnetate (Technetium-99m)” value [4] was “Substantial uptake” and the “Uptake of radioiodide (Iodine-125)” value [4] was “Substantial uptake”.
